In patent US20200231640A1 (ANTIBIOTIC ALTERNATIVES, published 2020):

Experiments:
S100A9 subunit = target: T1, S100A9 subunit (human, UniProt P06702 1-114); assay: immunofluorescence of mRNA-transfected KB cells with the heterodimer-specific antibody 27E10
T1 construct: Captured with anti-S100A9 from lysate of cells that also express S100A8, so it probably stood in the complex; also called MRP14; calgranulin B
T1 sequence (looked up): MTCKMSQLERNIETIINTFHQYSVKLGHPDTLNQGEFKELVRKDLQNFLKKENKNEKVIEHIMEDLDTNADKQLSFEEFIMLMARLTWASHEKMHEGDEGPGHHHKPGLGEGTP
Procedure: After CAMP, S100A8/S100A9 mRNA transfection for 16 hours, cells were fixed with 4% paraformaldehyde for 10 minutes, washed with PBS (pH 7.4), and then permeabilized with 0.25% Triton X-100 for 10 minutes. After blocking one hour with 1% BSA in PBS/0.1% Tween 20 and rinsing 3× with PBS, cells were incubated with mouse anti-calprotectin (mAb 27E10, sc-33714, Santa Cruz Biotechnolology, Inc., Santa Cruz, Calif.) or mouse anti-LL37 (sc-166770, Santa Cruz Biotechnolology, Inc., Santa Cruz, Calif.) for one hour, followed by Alexa Fluor 568-conjugated goat anti-mouse IgG or Alexa Fluor 488-conjugated goat anti-rabbit IgG (Life Technologies Corp., Carlsbad, Calif.) for one hour. For EGFP mRNA transfection, no antibody incubation was needed. Nuclei were stained with DAPI. Fluorescence images were captured using an epifluorescence microscope system. A8-IRES-A9 and A8-nIRES-A9 mRNA transfection for 40 hours were also performed.

Chk1 = target: T2, Chk1 (human, UniProt O14757 1-476); assay: co-immunoprecipitation from cell lysate
T2 construct: also called checkpoint kinase Chk1; p-Chk1 (Ser345)
T2 sequence (looked up): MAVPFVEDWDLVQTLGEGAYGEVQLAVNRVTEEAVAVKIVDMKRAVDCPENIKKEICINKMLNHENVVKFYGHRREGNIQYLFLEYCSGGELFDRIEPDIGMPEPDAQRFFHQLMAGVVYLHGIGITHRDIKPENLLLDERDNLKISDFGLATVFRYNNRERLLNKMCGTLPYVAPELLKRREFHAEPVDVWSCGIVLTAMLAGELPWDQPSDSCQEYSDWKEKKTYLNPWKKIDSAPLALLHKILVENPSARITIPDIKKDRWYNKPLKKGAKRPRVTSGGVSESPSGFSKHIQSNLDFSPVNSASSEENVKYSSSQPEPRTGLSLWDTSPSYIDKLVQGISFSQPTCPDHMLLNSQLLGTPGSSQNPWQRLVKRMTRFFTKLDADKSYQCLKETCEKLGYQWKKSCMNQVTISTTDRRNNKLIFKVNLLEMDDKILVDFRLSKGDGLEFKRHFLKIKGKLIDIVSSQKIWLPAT

B1: S100A8 (other, human, UniProt P05109 1-93, looked up)
chain: MLTELEKALNSIIDVYHKYSLIKGNFHAVYRDDLKKLLETECPQYIRKKGADVWFKELDINTDGAVNFQEFLILVIKMGVAAHKKSHEESHKE
notes: Expressed in KB cells from transfected mRNA; also called MRP8; calgranulin A
binding result (S100A9 subunit): binds

B2: S100A8/A9 protein complex (calprotectin; S100A8 complexed with S100A9) (other, human)
chain 1: B1 chain
chain 2: T1 sequence (looked up)
notes: Cytosolic complex in lysates of stably transfected KB-S100A8/A9 cells (co-immunoprecipitation), or in mRNA-transfected KB cells (immunofluorescence); also called S100A8/S100A9 heterodimer; MRP8/14
binding result (Chk1): no binding
